From paper PMC8373067, “The RGG domain in the C-terminus of the DEAD box helicases Dbp2 and Ded1 is necessary for G-quadruplex destabilization”

Assays:
Ded1 WT [1] = target: T1, Ded1 WT (Schizosaccharomyces pombe, UniProt O13370 1-636); test: EMSA; 10 nM protein, Na+; EMSA: 0.4 nM 32P-oligo (0.2 nM in Fig S4), 50 mM Tris (pH not stated), 50 mM KCl (DNA) or NaCl (RNA), 2 mM MgCl2, 2 mM DTT, 0.25 mg/ml BSA, 10 min at 30 C; conditions: protein: recombinant, tags: C-terminal poly-His, label: 5'-32P
Dbp2 WT [2] = target: T2, Dbp2 WT (Schizosaccharomyces pombe, UniProt P24782 1-550); test: as above; conditions: protein: recombinant, tags: C-terminal poly-His, label: 5'-32P
Oga1 WT [3] = target: T3, Oga1 WT (Schizosaccharomyces pombe, UniProt O42914 1-284); test: as above; conditions: protein: recombinant, tags: C-terminal poly-His, label: 5'-32P
T3 sequence: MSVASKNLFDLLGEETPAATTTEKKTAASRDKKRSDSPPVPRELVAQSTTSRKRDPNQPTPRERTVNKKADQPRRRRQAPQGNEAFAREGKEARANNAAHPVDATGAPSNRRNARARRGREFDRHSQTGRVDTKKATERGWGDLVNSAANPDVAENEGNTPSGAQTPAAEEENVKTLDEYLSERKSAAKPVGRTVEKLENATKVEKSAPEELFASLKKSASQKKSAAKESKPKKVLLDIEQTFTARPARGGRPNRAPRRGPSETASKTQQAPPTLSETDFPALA

Ded1 WT [4] = target: T1, Ded1 WT; test: EMSA; up to 10 nM protein; EMSA: 0.4 nM 32P-oligo (0.2 nM in Fig S4), 50 mM Tris (pH not stated), 50 mM KCl (DNA) or NaCl (RNA), 2 mM MgCl2, 2 mM DTT, 0.25 mg/ml BSA, 10 min at 30 C; conditions: protein: recombinant; tags: C-terminal poly-His; label: 5'-32P; single strand
Dbp2 WT [5] = target: T2, Dbp2 WT; test: as above; conditions: protein: recombinant; tags: C-terminal poly-His; label: 5'-32P; single strand
Oga1 WT [6] = target: T3, Oga1 WT; test: as above; conditions: protein: recombinant; tags: C-terminal poly-His; label: 5'-32P; single strand
Ded1 WT [7] = target: T1, Ded1 WT; test: EMSA; K+, 2 mM Mg2+; EMSA: 0.4 nM 32P-oligo (0.2 nM in Fig S4), 50 mM Tris (pH not stated), 50 mM KCl (DNA) or NaCl (RNA), 2 mM MgCl2, 2 mM DTT, 0.25 mg/ml BSA, 10 min at 30 C; conditions: protein: recombinant; tags: C-terminal poly-His; label: 5'-32P; parallel G4, 5' A10 overhang
Dbp2 WT [8] = target: T2, Dbp2 WT; test: as above; conditions: protein: recombinant; tags: C-terminal poly-His; label: 5'-32P; parallel G4, 5' A10 overhang
[9] = parallel G4, 5' U5 and 3' U5 overhangs

T1 sequence (O13370 whole entry): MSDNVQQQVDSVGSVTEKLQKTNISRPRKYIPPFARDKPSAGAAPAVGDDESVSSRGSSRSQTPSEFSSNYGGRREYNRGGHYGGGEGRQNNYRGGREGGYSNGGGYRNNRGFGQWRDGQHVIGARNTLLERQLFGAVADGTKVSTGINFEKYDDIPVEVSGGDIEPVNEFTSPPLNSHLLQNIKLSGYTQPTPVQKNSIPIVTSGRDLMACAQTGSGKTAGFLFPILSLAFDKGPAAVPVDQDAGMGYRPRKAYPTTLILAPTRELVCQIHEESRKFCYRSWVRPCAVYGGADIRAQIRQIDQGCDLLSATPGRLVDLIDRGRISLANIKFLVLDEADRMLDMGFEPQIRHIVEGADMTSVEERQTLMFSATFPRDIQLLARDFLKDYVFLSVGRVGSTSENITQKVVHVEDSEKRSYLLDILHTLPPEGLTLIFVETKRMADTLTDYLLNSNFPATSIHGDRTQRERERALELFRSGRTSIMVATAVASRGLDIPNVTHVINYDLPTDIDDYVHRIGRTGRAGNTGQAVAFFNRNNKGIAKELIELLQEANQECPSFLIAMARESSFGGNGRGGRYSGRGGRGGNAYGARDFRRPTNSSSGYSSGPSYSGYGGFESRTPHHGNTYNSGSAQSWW
T2 sequence (P24782 whole entry): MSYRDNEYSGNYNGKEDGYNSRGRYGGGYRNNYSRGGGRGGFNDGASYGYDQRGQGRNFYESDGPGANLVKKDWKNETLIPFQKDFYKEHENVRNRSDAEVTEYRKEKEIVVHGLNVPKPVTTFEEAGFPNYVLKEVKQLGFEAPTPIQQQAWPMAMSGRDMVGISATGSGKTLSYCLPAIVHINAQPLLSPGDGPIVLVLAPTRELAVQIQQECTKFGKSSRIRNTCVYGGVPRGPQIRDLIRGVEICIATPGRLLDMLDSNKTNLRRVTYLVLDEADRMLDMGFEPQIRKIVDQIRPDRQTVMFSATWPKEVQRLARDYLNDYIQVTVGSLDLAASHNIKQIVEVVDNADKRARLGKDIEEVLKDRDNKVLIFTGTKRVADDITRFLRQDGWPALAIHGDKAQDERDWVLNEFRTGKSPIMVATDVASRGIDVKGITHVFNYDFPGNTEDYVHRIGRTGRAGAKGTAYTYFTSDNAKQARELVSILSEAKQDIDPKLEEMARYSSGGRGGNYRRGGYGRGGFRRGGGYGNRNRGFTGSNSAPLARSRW

UUUUUGGGGAAGGGUGGGGCAUGUUAUGGGUUUUU (structured_RNA) [5'-RNA-G4-3' (5U-G4-5U RNA)]: binds (Ded1 WT [1]; [9]); binds (Dbp2 WT [2]; [9]); binds (Oga1 WT [3]; [9]).

AAAAAAAAAAGGTGCGAGGTGAGTGTGGAGTGAGG (ssDNA) [10A-rDNA scr]: no binding (Ded1 WT [4]); no binding (Dbp2 WT [5]); no binding (Oga1 WT [6]).

AAAAAAAAAAGGGGAAGGGUGGGGCAUGUUAUGGG (structured_RNA) [5'-RNA-G4 (10A-G4 RNA)]: binds (Ded1 WT [1]); binds (Dbp2 WT [2]); binds (Oga1 WT [3]).

With AAAAAAAAAAGGGGAAGGGTGGGGCATGTTATGGG (structured_DNA) [10A-rDNA G4] the Kd (Ded1 WT [7]) was 6.59 ± 0.1 nM and the Kd (Dbp2 WT [8]) was 3.84 ± 1.06 nM.
